Results published in patent US20140045211A1.

Biological target: CCR1 on HEK293 cells / HEK293 membranes stably expressing CCR1 (UniProt P32246)
Assay: cell-based or functional assay

Sequence of CCR1 on HEK293 cells / HEK293 membranes stably expressing CCR1 (P32246 whole entry): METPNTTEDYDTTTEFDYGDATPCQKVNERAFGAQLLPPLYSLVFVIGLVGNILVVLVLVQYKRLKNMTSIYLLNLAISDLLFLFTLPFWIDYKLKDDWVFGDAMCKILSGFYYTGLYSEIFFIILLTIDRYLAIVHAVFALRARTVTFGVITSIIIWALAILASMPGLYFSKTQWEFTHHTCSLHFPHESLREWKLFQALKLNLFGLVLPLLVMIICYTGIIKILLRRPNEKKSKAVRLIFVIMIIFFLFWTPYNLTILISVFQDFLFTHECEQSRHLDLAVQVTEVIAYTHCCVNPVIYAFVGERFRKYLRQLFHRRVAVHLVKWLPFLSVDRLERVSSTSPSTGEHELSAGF

Substance: CCL14-fluorescein (CCL14 9-74 with added C-terminal cysteine labeled with fluorescein-5-maleimide) (from UniProt Q16627 28-93) (ligand)
- calcium flux (dose response curve): 2 nM
